Consider 3 molecules from patent publication US20200095296A1 (TRUSTEES OF COLUMBIA UNIVERSITY IN THE CITY OF NEW YORK, published 2020).

Where no end group is shown, it is not given here. [ ]: non-standard residue; d: D form. pY = N[C@@H](Cc1ccc(OP(=O)(O)O)cc1)C(=O)O

The target of one test is T1, HLA A*11:01 (human).
T1 construct: purified HLA A*11:01 molecules
The test can be described thus: competition with radiolabeled peptide, purified HLA A*11:01.

A further test concerns the target T2, HLA DRB1*04:01 (human).
T2 construct: purified HLA class II molecule; only the beta-chain allele is printed
The test can be described thus: competition with radiolabeled peptide, purified HLA.

For another test, the target named is T3, HLA DQB1*04:02 (human).
T3 construct: purified HLA class II molecule; only the beta-chain allele is printed
The test is described as above.

A further test deals with T4, HLA DRB3*01:01 (human).
T4 construct: purified HLA class II molecule; only the beta-chain allele is printed
Described as above.

The next test has as its target T5, HLA DQB1*05:01 (human).
T5 construct: purified HLA class II molecule; only the beta-chain allele is printed
The description is as above.

The target in the next test is T6, HLA DPB1*04:01 (human).
T6 chain 1: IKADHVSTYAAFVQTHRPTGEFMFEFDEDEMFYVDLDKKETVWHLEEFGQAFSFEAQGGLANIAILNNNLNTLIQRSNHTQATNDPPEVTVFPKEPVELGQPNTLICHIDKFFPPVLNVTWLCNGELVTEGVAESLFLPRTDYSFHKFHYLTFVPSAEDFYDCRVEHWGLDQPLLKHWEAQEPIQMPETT
T6 chain 2: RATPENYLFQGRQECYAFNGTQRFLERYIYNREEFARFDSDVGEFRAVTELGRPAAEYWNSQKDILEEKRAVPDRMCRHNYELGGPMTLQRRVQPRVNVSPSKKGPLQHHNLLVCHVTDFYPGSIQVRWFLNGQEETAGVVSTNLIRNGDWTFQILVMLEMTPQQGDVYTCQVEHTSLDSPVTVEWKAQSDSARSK
Described as above.

A further test concerns the target T7, HLA DPB1*05:01 (human).
T7 construct: purified HLA class II molecule; only the beta-chain allele is printed
The description is as above.

The next test concerns the target T8, HLA DPB1*04:02 (human).
T8 construct: purified HLA class II molecule; only the beta-chain allele is printed
The test is described as above.

A further test deals with T9, HLA DPB1*02:01 (human).
T9 chain 1: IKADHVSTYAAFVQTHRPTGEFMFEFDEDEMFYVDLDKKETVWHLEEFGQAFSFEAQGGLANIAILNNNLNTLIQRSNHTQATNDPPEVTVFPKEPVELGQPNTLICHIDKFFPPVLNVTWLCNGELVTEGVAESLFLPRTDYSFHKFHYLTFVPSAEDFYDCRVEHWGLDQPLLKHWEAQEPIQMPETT
T9 chain 2: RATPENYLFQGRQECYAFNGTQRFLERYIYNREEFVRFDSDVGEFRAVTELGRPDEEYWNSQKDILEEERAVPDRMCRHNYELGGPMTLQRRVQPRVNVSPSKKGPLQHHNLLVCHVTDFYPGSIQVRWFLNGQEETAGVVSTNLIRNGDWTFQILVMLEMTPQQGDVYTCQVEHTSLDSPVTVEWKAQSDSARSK
The description is as above.

B1: alpha-syn peptide aa37VLYVGSKTKaa45 (peptide)
peptide: VLYVGSKTK
notes: synthetic 9-mer; also called the 9 mer
Molecule B1 returned a half-maximal inhibitory concentration (IC50) in the test with HLA A*11:01 of 161 nM. This counts as sub-micromolar.

B2: alpha-syn peptide aa121DNEAYEMPSEEGYQDaa135 (peptide)
peptide: DNEAYEMPSEEGYQD
notes: synthetic 15-mer of alpha-synuclein
Consider B2, for which the IC50 was 76 nM with HLA DRB1*04:01, 51 nM with HLA DQB1*04:02, 787 nM with HLA DRB3*01:01 and 7 nM with HLA DQB1*05:01.

B3: alpha-syn peptide aa32KTKEGVLYVGSKTKEaa46 phosphorylated at Y39 (peptide)
peptide: KTKEGVL[pY]VGSKTKE
notes: synthetic post-translationally modified 15-mer; also called Phospho-Y
With B3, the 50% inhibitory concentration (IC50) with HLA DPB1*04:01 amounted to 937 nM; in the test with HLA DPB1*05:01 it was 777 nM; with HLA DPB1*04:02 it was 1600 nM; with HLA DPB1*02:01, 620 nM.

The term IC50 denotes the point on the concentration scale where inhibition reaches its midpoint. High values mean lower potency, low ones higher potency.
